Assay results as given in patent US10513702B2, “Synthetic hammerhead ribozymes with ligand-responsive tertiary interactions” (The Board of Trustees of the Leland Stanford Junior …, priority 2015, dated 2019).
Numbering of substitutions follows the chain as printed.

B1: L2b8-t47: previously optimized secondary-structure switching theophylline-responsive RNA device, SEQ ID NO: 3 (nucleic acid)
DNA: AAACAAACAAAGCUGUCACCGGAUGUGCUUUCCGGUCUGAUGAGUCCGUUGAGUAUACCAGCAUCGUCUUGAUGCCCUUGGCAGACUGUAUACGGAGGACGAAACAGCAAAAAGAAAAAUAAAAA
modifications: listed as RNA, chemistry not fully specified
B2: L2b8: previously optimized secondary-structure switching theophylline-responsive RNA device, SEQ ID NO: 1 (nucleic acid)
DNA: B1 DNA with A52U, G53C, U54C, A85G, C86G, U87A, G88C, U89G, A90G, U91G
modifications: listed as RNA, chemistry not fully specified
B3: L2b8-a1: previously optimized secondary-structure switching theophylline-responsive RNA device, SEQ ID NO: 2 (nucleic acid)
chain: AAACAAACAAAGCUGUCACCGGAAUCAAGGUCCGGUCUGAUGAGUCCGUUGUCCAUACCAGCAUCGUCUUGAUGCCCUUGGCAGGGACGGGACGGAGGACGAAACAGCAAAAAGAAAAAUAAAAA
modifications: listed as RNA, chemistry not fully specified

Key:
[1] = system: GFP reporter transcript (device in 3′ UTR; GFP/mCherry two-color reporter construct); test: Flow cytometry validation of reconstructed switch/ribozyme sequences in two-color reporter plasmid; type: cell-based, budding yeast strain W303a; conditions: for μ (-tgt), median GFP/mCherry ratio (basal level): absence of target ligand, at least 3 independent transformants, ± standard error of the mean
Text: The RNA devices were individually synthesized, integrated into the two-color characterization plasmid, and assayed in yeast via flow cytometry. The μ values obtained from flow cytometry analysis of the reconstructed sequences are tightly correlated with those obtained through the FACS-Seq analysis (FIG. 3a; R^2=0.98). We compared the validated activation ratios (μ−target/μ+target) for several of the best performing switches from the tertiary interaction switch libraries with those from previously optimized RNA devices that function through secondary structure rearrangements (FIG. 3b, Table 1).
Specific switch sequences were synthesized from overlapping oligonucleotides using overlap-extension PCR as described for the device library constructions. These were gap-repair transformed into the yeast two-color screening plasmid along with control plasmids by the lithium acetate/single-stranded carrier DNA/polyethylene glycol method, with each switch sequence verified using Sanger sequencing. At least three individual colonies were picked and inoculated in SC-URA media. Cultures were grown overnight, back-diluted 20:1 to an OD600˜0.07 and then grown 6 hrs in the absence and presence of a ligand target, at the same ligand concentrations as used for the FACS-Seq assays. The cells were then spun down and resuspended in an equal volume of 1×PBS buffer (Life Technologies) with 1% BSA (Fraction V, EMD Millipore) and a DAPI viability dye (Life Technologies). GFP was excited at 488 nm and measured with a bandpass filter of 525/50 nm. mCherry was excited at 561 nm and measured with a bandpass filter of 615/20 nm. DAPI was excited at 405 nm and measured with a bandpass filter of 450/50 nm. Prior to each use, voltages of fluorescence PMT detectors were calibrated with MACSQuant calibration beads to fix GFP and mCherry levels. For each culture, 10 μl of sample was analyzed, which captured 50,000-150,000 events while also providing cell density measurements. The data was analyzed using a custom MATLAB program to gate for mCherry expression above the no-color controls and non-saturating values for GFP and mCherry, and then extract μ, the median GFP/mCherry ratio. Since cultures that contain tetracycline produce non-specific fluorescence in the GFP emission region, the μ values for this condition were corrected by subtracting a fixed offset.
Note that the NGS data is based on cells sorted through a FACSAria II Cell Sorter. An in-house flow cytometer (Miltenyi Biotec MACSQuant VYB) was used for validation measurements. The GFP and mCherry levels are given in arbitrary fluorescence units that differ between the two instruments, but in all cases are treated as a linear function of the actual protein levels in order to compute μ. […]

[2] = system: GFP reporter transcript (device in 3′ UTR; GFP/mCherry two-color reporter construct); test: Flow cytometry dose-response assays on reconstructed theophylline-responsive RNA devices; type: cell-based, budding yeast strain W303a; conditions: theophylline 0-20 mM; 4-parameter logistic fit, Hill slope 1.0; [80% confidence interval]
Method: Median GFP/mCherry ratios were computed for at least triplicate independent cultures assayed at theophylline concentrations of 0, 0.16, 0.31, 0.62, 1.25, 2.5, 5, 10, and 20 mM. The data were fit to a 4-parameter logistic model with the Hill slope fixed at 1.0; the 80% confidence interval for the EC50 fit is shown. A range of one standard deviation over the replicates is shown for the mean activity levels and activity ratio.

[3] = system: RNA device self-cleavage (ribozyme); test: In vitro SPR-based ribozyme cleavage assay; type: biochemical; conditions: 500 μM MgCl2, 25° C.
Method: Representative FACS-Seq sort identified theophylline-responsive RNA device cleavage kinetics and ligand sensitivity were determined by surface plasmon resonance (SPR), using previously described protocols. Briefly, the RNA device DNA templates were amplified by PCR (PFU Ultrall HS; Agilent) with primers containing overhangs corresponding to the T7 RNAP promoter and cis-blocking sequences that prevent device cleavage during in vitro T7 transcription (Table 2; SPR templates). A second PCR (KAPA HiFi PCR Kit; Kapa Biosystems) with short primers was performed to enrich the product for full-length sequences (Table 2; SPR_fwd_primer, SPR_rev_primer). […]
SPR-based cleavage assays were performed at various theophylline concentrations to generate dose-response curves. The RNA dissociation rate constant (kd) at each theophylline concentration ([theo]) was fit to the sigmoidal equation kd=kd,min+(kd,max)/(1+[theo]/IC50) using MATLAB, where kd,max and kd,min are the maximum and minimum RNA dissociation rate constants, evaluated in absence of and with the highest theophylline concentration assayed, respectively. […]

Row | Molecule | μ (-tgt), median GFP/mCherry ratio (basal level) [1] | EC50 [2] [mM] | Activation Ratio ([1]; 5 mM vs 0 mM theophylline, ± SEM) | kd, ribozyme cleavage (dissociation) rate constant ([3]; 1 mM theophylline) [s⁻¹] | kd, ribozyme cleavage (dissociation) rate constant ([3]; absence of ligand (0 mM theophylline)) [s⁻¹]
1 | sTRSVctl: inactive control ribozyme with scrambled catalytic core, SEQ ID NO: 8 (DNA GCUGUCACCGGAUGUGCUUUCCGGUACGUGAGGUCCGUGAGGACAGAACAGC; listed as RNA, chemistry not fully specified) [reference compound] | 5.8±0.3 | – | – | – | –
2 | sTRSV: wild-type tobacco ringspot virus hammerhead ribozyme, SEQ ID NO: 7; loop I TGTGCTT, loop II GTGA (DNA GCUGUCACCGGAUGUGCUUUCCGGUCUGAUGAGUCCGUGAGGACGAAACAGC; listed as RNA, chemistry not fully specified) [reference compound] | 0.051±0.003 | – | – | – | –
3 | B1 | – | 5.7 | 2.8±0.3 | – | –
4 | B2 | – | 4.9 | – | – | –
5 | B3 | 0.109±0.004 | 10.4 | – | 0.00283 | 0.01
